B1: FYN-SH3-SH2 (aa 82 to 248) (domain or fragment)
chain: not shown
B2: EAT-2 127 peptide, biotinylated, phosphorylated (peptide)
peptide: Biotin-NSNSD[pY]VDVLP
B3: LCK-SH3-SH2 (aa 58 to 230) (domain or fragment, human, UniProt P06239 58-230, looked up)
chain: ASPLQDNLVIALHSYEPSHDGDLGFEKGEQLRILEQSGEWWKAQSLTTGQEGFIPFNFVAKANSLEPEPWFFKNLSRKDAERQLLAPGNTHGSFLIRESESTAGSFSLSVRDFDQNQGEVVKHYKIRNLDNGGFYISPRITFPGLHELVRHYTNASDGLCTRLSRPCQTQKPQ

Assay in all cases: SPR
The target in test [1] is B1.
Test [2] addresses B3.
The target of test [3] is T1, PLC-γ1 SH2 N+C (aa 545 to 749) (human, UniProt P19174 545-749).
T1 sequence (looked up): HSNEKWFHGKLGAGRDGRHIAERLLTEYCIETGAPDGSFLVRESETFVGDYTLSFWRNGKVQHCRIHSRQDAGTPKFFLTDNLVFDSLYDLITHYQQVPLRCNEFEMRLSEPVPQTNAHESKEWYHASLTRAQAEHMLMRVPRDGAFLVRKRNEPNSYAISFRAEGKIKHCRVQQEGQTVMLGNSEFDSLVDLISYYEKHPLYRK

For test [4], the target named is B2.

The source of these data is publication PMC2757176 (The Journal of biological chemistry, 2009).

Non-standard residues stand in square brackets, D forms with d. No end group written: not given here. *: point of attachment. Biotin = O=C1N[C@H]2[C@H](CS[C@H]2CCCCC(=O)*)N1; pY = N[C@@H](Cc1ccc(OP(=O)(O)O)cc1)C(=O)O

As for Biotin-HPPPPPGHRSQAPSHRPPPPGHRVQ [CD2-281-305 peptide, biotinylated], the Kd was ~4 µM in test [1] and > 1000 µM in test [2].

As for Biotin-HNPG[pY]LVVLP [LAT 132 peptide, biotinylated, phosphorylated], the Kd in test [3] was ~20 nM.

As to B1, the “fold weaker than FYN binding to the CD244 ITSM” value in test [4] is ~5 fold.

Biotin-QKGPPLPRPRVQPKPPHG [CD2-322 peptide, biotinylated]: the Kd was ~4 µM in test [1] and > 1000 µM in test [2].

As for Biotin-EFLTI[pY]EDVKD [CD244 ITSM 1 peptide, biotinylated, phosphorylated], the Kd was ~0.2 µM in test [1] and ~2 µM in test [2].

With B2, the Kd in test [3] was ~40 nM.

Regarding B3, the “fold weaker than FYN binding to human EAT-2” value in test [4] turned out to be 10 fold.
